Eight molecules from patent publication US20050282743A1, “Molecular interactions in cells” (Arbor Vita Corporation, priority 2001, published 2005) can be followed below.

By pKd is commonly meant the Kd on a negative log10 scale, so that one unit is a factor of ten.

pKd: −log10 of the molar value. Like-named read-outs stand apart in the source and are kept apart here. Ends that are not written are not given here. Peptide text beside a SMILES is read from it. * marks the point of attachment. Biotin = O=C1N[C@H]2[C@H](CS[C@H]2CCCCC(=O)*)N1

Holding throughout (assay type): binding
The target in test [1] is T1, PDZ protein (GST-PDZ fusion) (Homo sapiens, UniProt Q99767).
T1 construct: made in house; host or cells: E. coli (DH5alpha, BL21 or JM109)
T1 sequence (Q99767 1-749): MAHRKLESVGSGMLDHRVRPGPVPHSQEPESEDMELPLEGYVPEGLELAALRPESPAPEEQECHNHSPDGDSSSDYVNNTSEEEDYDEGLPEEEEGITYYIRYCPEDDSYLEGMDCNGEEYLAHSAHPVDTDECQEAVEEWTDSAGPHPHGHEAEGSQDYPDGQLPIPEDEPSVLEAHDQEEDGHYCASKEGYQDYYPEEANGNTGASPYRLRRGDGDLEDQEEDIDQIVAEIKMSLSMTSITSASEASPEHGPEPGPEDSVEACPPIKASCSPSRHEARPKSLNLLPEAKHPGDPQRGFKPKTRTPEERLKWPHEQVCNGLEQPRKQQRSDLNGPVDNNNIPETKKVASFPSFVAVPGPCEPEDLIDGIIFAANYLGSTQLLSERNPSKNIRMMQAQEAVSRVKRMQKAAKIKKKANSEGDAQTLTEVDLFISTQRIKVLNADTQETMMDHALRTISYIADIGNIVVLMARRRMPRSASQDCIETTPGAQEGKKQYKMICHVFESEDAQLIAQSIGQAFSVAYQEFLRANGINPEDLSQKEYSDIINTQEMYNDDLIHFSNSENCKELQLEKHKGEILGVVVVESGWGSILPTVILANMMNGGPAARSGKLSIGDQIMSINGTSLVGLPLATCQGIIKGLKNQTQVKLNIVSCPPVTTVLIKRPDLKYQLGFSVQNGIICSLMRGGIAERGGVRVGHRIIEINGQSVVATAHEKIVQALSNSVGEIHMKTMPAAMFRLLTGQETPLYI
Briefly: G' assay (10 uM PL peptide), results of TABLE 7 and TABLE 12. To be noted: PDZ X11-beta. Summed up: (§1)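 Biotin-PL peptide (N-term label), 10 uM vs GST-PDZ; protein 5 ug/ml by default. A450 nm binned: 1 = 0-1, 2 = 1-2, 3 = 2-3, 4 = 3-4, 5 = >4 on >2 repeats, 0 = no binding.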

The target of test [2] is T2, PDZ protein (GST-PDZ fusion) (Homo sapiens, UniProt Q9ULJ8).
T2 construct: made in house; host or cells: E. coli (DH5alpha, BL21 or JM109)
T2 sequence (Q9ULJ8 whole entry, the tested form may be a part): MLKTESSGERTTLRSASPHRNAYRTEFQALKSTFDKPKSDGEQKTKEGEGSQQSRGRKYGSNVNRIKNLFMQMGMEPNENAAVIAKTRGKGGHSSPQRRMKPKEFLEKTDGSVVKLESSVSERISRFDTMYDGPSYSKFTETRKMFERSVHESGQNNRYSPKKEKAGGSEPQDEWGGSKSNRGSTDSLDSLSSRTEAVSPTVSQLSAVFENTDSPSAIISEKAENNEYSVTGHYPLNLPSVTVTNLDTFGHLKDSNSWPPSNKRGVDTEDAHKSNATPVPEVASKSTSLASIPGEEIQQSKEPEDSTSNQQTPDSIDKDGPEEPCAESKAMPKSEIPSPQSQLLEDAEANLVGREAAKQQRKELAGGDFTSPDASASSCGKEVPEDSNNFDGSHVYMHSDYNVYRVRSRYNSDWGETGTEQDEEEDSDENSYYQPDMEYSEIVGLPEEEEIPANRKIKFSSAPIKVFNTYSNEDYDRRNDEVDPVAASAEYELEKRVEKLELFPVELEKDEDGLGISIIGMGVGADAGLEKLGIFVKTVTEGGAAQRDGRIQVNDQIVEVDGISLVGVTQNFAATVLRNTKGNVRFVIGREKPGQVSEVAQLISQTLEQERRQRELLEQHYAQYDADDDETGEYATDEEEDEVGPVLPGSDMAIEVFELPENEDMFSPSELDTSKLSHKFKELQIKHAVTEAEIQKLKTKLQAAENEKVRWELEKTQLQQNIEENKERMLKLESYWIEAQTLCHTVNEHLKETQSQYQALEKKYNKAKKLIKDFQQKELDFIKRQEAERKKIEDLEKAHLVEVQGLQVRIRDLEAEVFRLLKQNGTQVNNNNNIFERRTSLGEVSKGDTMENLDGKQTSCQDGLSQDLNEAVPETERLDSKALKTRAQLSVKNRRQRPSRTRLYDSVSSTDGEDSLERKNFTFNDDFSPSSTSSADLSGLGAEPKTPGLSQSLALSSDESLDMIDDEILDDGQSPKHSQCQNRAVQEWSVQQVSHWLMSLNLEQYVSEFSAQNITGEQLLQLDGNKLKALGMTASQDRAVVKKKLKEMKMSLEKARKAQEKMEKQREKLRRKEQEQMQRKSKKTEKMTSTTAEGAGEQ
The description is as above. To be noted: PDZ KIAA1222, PDZ Domain 1. Summed up:
as §1

Test [3] deals with T3, PDZ-domain polypeptide (GST/PDZ fusion protein) (Homo sapiens, UniProt Q8TEW0).
T3 construct: made in house; host or cells: E. coli (DH5alpha, BL21 or JM109)
T3 sequence (Q8TEW0 whole entry, the tested form may be a part): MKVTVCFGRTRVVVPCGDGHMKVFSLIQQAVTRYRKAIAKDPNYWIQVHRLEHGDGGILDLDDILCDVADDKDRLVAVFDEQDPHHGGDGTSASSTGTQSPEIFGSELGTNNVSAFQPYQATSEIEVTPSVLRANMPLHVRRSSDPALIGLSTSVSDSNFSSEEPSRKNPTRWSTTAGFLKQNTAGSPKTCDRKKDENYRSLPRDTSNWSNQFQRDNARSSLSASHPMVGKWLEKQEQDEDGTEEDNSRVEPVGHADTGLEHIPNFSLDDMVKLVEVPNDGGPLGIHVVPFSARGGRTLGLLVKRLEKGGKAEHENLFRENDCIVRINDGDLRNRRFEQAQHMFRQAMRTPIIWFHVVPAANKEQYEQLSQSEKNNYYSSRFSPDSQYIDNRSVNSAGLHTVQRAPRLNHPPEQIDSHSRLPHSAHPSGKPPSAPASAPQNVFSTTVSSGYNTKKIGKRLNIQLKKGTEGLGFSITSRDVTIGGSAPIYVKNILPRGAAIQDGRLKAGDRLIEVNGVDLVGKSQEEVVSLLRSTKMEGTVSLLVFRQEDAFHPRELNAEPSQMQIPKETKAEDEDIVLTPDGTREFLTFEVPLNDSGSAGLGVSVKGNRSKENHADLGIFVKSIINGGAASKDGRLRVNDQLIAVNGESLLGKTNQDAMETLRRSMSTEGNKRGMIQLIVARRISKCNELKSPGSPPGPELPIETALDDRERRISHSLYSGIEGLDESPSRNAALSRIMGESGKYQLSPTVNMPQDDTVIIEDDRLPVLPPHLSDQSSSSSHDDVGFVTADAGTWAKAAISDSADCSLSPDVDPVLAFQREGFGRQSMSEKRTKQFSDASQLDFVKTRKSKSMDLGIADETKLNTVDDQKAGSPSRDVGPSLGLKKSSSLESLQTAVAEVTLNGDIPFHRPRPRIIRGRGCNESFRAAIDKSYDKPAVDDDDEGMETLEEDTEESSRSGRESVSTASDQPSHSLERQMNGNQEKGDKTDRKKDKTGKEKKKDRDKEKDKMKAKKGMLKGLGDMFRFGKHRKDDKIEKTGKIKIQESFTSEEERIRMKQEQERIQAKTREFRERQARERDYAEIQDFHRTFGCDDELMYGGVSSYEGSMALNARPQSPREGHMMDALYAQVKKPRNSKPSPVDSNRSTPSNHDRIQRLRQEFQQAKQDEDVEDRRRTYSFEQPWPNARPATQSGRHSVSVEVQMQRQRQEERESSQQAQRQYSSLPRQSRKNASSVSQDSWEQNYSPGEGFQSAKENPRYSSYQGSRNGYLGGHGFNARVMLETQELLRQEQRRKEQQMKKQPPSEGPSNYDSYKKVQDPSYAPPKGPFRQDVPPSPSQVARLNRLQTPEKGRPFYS
Kind of test: Apparent affinity (Kd) by titration of PL peptide in the G assay. The settings on record: PDZ PAR3, PDZ Domain 3. Summed up: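 A fixed concentration of GST/PDZ fusion protein, 5 ug/ml by default, was mixed in solution with increasing labeled PL peptide (e.g. 0.1 uM-1 mM). Reaction times ranged from 10 minutes to 2 days at 4-37° C. Complexes were separated from free peptide and detected via the label as in the G assay, apparent affinity coming from the saturating concentration.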

Test [4] concerns the target T4, PDZ protein (GST-PDZ fusion) (Homo sapiens, UniProt O00560).
T4 construct: made in house; host or cells: E. coli (DH5alpha, BL21 or JM109)
T4 sequence (O00560 1-298): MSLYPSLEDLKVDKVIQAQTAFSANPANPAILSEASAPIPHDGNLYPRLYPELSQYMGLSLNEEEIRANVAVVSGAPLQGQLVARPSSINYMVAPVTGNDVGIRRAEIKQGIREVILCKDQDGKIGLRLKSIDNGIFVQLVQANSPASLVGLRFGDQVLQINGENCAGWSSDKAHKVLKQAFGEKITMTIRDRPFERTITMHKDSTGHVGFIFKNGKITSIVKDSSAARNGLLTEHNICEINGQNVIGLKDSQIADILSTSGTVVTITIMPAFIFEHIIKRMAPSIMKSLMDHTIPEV
Kind of test: G' assay (10 uM PL peptide), results of TABLE 7 and TABLE 12. To be noted: PDZ hSyntenin, PDZ Domain 1. Summed up:
as §1

Consider “ALVLIAFCIIRRRPSAYQAL (Biotin-ALVLIAFCIIRRRPSAYQAL) [CD68]”, for which the Classification in test [1] (PDZ Domain 2) is 1 (A450 nm 0-1).
Regarding `CC[C@H](C)[C@H](NC(=O)[C@H](CCCCN)NC(=O)[C@@H](NC(=O)[C@H](CO)NC(=O)[C@@H]1CCCN1C(=O)[C@H](Cc1ccccc1)NC(=O)[C@@H](NC(=O)[C@@H](NC(=O)[C@H](CCCNC(=N)N)NC(=O)[C@H](CCC(=O)O)NC(=O)[C@H](CC(C)C)NC(=O)[C@H](CC(C)C)NC(=O)[C@H](CC(C)C)NC(=O)[C@@H](NC(=O)CNC(=O)[C@@H](NC(=O)CCCC[C@@H]1SC[C@@H]2NC(=O)N[C@@H]21)C(C)C)[C@@H](C)O)C(C)C)[C@@H](C)CC)C(C)C)C(=O)N[C@@H](C)C(=O)N[C@H](C(=O)N[C@@H](CC(C)C)C(=O)N[C@H](C(=O)O)C(C)C)[C@@H](C)O` [Adenovirus E4 Type9], the Classification in test [2] (PL peptide 10 uM) is given as 1 (A450 nm 0-1).
Consider `CC[C@H](C)[C@H](NC(=O)[C@H](C)NC(=O)[C@H](CC(C)C)NC(=O)[C@H](Cc1c[nH]c2ccccc12)NC(=O)[C@H](Cc1c[nH]cn1)NC(=O)[C@H](CCC(N)=O)NC(=O)[C@H](CC(C)C)NC(=O)[C@H](CCC(N)=O)NC(=O)[C@H](Cc1ccccc1)NC(=O)[C@H](CCC(N)=O)NC(=O)[C@H](CCCNC(=N)N)NC(=O)[C@@H](NC(=O)[C@H](CC(=O)O)NC(=O)[C@H](CCCNC(=N)N)NC(=O)[C@H](CCC(N)=O)NC(=O)[C@H](C)NC(=O)[C@@H](NC(=O)[C@H](CC(C)C)NC(=O)[C@H](Cc1c[nH]cn1)NC(=O)[C@H](Cc1c[nH]cn1)NC(=O)CCCC[C@@H]1SC[C@@H]2NC(=O)N[C@@H]21)C(C)C)[C@@H](C)CC)C(=O)O` [noradrenaline transporter] (Biotin-HHLVAQRDIRQFQLQHWLAI-OH; C-terminus assumed), for which the pKd in test [3] (Peptide Optimal Conc (Kd by titration of the PL peptide)) was 6.22.
As to “A2AA_HUMAN (modified) (Biotin-HDFRRAFKKILARGDRKRIV; not fully specified)”, the Classification in test [1] (PDZ Domain 1) is 2 (A450 nm 1-2); in test [1] (PDZ Domain 2), 1 (A450 nm 0-1).
Consider `CC[C@H](C)[C@H](NC(=O)[C@H](Cc1ccc(O)cc1)NC(=O)[C@@H](NC(=O)[C@@H]1CCCN1C(=O)[C@H](CCC(N)=O)NC(=O)[C@H](CCC(=O)O)NC(=O)[C@H](CCC(N)=O)NC(=O)[C@H](C)NC(=O)[C@@H](NC(=O)[C@H](CC(C)C)NC(=O)[C@H](CC(C)C)NC(=O)[C@H](CCCNC(=N)N)NC(=O)[C@H](Cc1ccc(O)cc1)NC(=O)[C@H](CCSC)NC(=O)[C@H](C)NC(=O)[C@H](C)NC(=O)[C@@H]1CCCN1C(=O)[C@H](CCSC)NC(=O)[C@@H](NC(=O)[C@H](CCCCN)NC(=O)CCCC[C@@H]1SC[C@@H]2NC(=O)N[C@@H]21)[C@@H](C)O)[C@@H](C)O)C(C)C)C(=O)O` [MINT-1] (Biotin-KTMPAAMYRLLTAQEQPVYI-OH; C-terminus assumed), for which the Classification is given as 1 (A450 nm 0-1) in test [2] and 3 (A450 nm 2-3) in test [4].
With “ELLQFCRTPNPALKNGQYWV (Biotin-ELLQFCRTPNPALKNGQYWV)”, the Classification in test [4] and in test [1] (PDZ Domain 2) was 2 (A450 nm 1-2) in each case.
As to `CC[C@H](C)[C@H](NC(=O)[C@H](Cc1ccc(O)cc1)NC(=O)[C@H](CC(C)C)NC(=O)[C@H](CCC(N)=O)NC(=O)[C@H](Cc1c[nH]cn1)NC(=O)[C@H](CO)NC(=O)[C@H](C)NC(=O)[C@H](CC(C)C)NC(=O)[C@@H](NC(=O)[C@H](CC(=O)O)NC(=O)[C@H](CCSC)NC(=O)[C@H](Cc1ccccc1)NC(=O)[C@@H]1CCCN1C(=O)[C@H](CCCNC(=N)N)NC(=O)[C@@H](NC(=O)[C@H](CC(C)C)NC(=O)[C@H](CC(N)=O)NC(=O)[C@H](CC(=O)O)NC(=O)[C@@H](NC(=O)[C@H](CO)NC(=O)CCCC[C@@H]1SC[C@@H]2NC(=O)N[C@@H]21)[C@@H](C)O)C(C)C)[C@@H](C)O)C(=O)O` [presenilin-2] (Biotin-STDNLVRPFMDTLASHQLYI-OH; C-terminus assumed), in test [3] (titration of the PL peptide, read-out: Peptide Optimal Conc (Kd, dissociation constant)), the pKd is 5.70.
For the molecule “KTMPAAMFRLLTGQETPLYI (Biotin-KTMPAAMFRLLTGQETPLYI) [MINT-2]”, the Classification is on record as 1 (A450 nm 0-1) in test [2] and 2 (A450 nm 1-2) in test [4].
